For 53 proteins, protein stability index results are on record in the supplement of paper PMC10567573.

This data set in a line: protein stability index of a GFP-peptide fusion (GPS, HEK-293T) (PSI 1-6); higher = more stable.
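Also: lentivirally expressed fusions sorted by FACS into six bins by GFP to DsRed ratio, PSI derived from sequencing read proportions per bin multiplied by bin number.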

In the case of QLIDPDENKENEAFEFKKPVRPVS, under “parent: IOH5852_23, c terminus: a fixed tail appended”, the protein stability index worked out at 3.49.

VVTSAREHIYDLRSLENYHFVDEH [CLINT1 WT]: for the setting “parent: IOH5634_17, c terminus: a fixed tail appended”, the protein stability index was determined as 2.76. For the protein FAHSSNLLRHQRIHTGERPYKCPE, the protein stability index (parent: IOH6312_84, c terminus: a fixed tail appended) was found to be 2.34. For LGCYAVYSLLYLEHKGWYSWVLSM, the protein stability index (parent: IOH5653_82, c terminus: a fixed tail appended) came out at 2.95. With RETASLKLLPHQPRIVEMKKGSNG, the protein stability index (parent: IOH5807_39, c terminus: a fixed tail appended) amounted to 3.37.

In the case of TVAGKHQDLKYISPEIMASVLNGK, the protein stability index (parent: IOH5852_59, c terminus: a fixed tail appended) was found to be 3.04.

Consider QSLDQEILLKVKTEIEEELKSLDK, for which the protein stability index (parent: IOH5956_9, c terminus: a fixed tail appended) is 4.89. For ERDFPCPVCRKTSRYRSLRPNRQL, where the note is “parent: IOH5913_11, c terminus: a fixed tail appended”, the protein stability index is 2.25. For the protein RPDTGDDAAGHGFCYCAGSHKRKR, the protein stability index (parent: IOH5876_6, c terminus: a fixed tail appended) was 2.92. For the protein APWNYHYHCPGSPDHQVPYGHDYP, for the setting “parent: IOH5394_44, c terminus: a fixed tail appended”, the protein stability index turned out to be 1.94.

For FMEKRNQWLVSQLSAASPDTGHDS, the protein stability index (parent: IOH5394_23, c terminus: a fixed tail appended) was found to be 2.4. In the case of SNFHINVEESVDGQVVSSHKREI, the protein stability index (parent: IOH5303_75, c terminus: native) was 2.11. Regarding KPYKCTLCGENFSHRSNLIRHQRI, the protein stability index (parent: IOH6312_101, c terminus: a fixed tail appended) is 2.32.

Turning to REESLPNLLQYVRMPLLTPRYITD, the protein stability index (parent: IOH6063_36, c terminus: a fixed tail appended) came to 2.48.

For QPKKLHLCPLCGKNFSNNSNLIRH, under “parent: IOH6312_63, c terminus: a fixed tail appended”, the protein stability index is 2.55. Consider LLRHQRIHTGERPYKCPECGKSFS, for which the protein stability index (parent: IOH6312_85, c terminus: a fixed tail appended) was 2.03. In the case of KPIVPTDGKRVIVVFHCEFSSERG, under “parent: IOH5852_70, c terminus: a fixed tail appended”, the protein stability index stood at 2.59.

Regarding QTSAFARQPRDELERVRVSCTIIF, the protein stability index (parent: IOH5167_61, c terminus: a fixed tail appended) was found to be 2.28. Regarding PRPPSNPPARGTLKTSNLPEELRK, where the note is “parent: IOH5394_64, c terminus: a fixed tail appended”, the protein stability index was 4.55.

As to YNPSFEDHQTLLSAAHEVELQRQK, the protein stability index (parent: IOH6410_42, c terminus: a fixed tail appended) was 3.61.

For the protein SMTTPRCYVGATVLRGRLYAIAGY, the protein stability index (parent: IOH6063_85, c terminus: a fixed tail appended) turned out to be 2.41.

On to FGPDSKSSALACTLPTLPAKVYVG, for which the protein stability index (parent: IOH5398_13, c terminus: a fixed tail appended) was determined as 2.21. For LDYTADEDGVWYSVAPMNVRRGLA, the protein stability index (parent: IOH6063_59, c terminus: a fixed tail appended) is 1.98. With FGGNPRFLSLHRAHLGEEAHKCLE, the protein stability index (parent: IOH6312_70, c terminus: a fixed tail appended) amounted to 1.85. Turning to FQRRNMIEPRERAKFKRKYKVKLV, the protein stability index (parent: IOH6410_75, c terminus: a fixed tail appended) is 2.25. Turning to MASSSTVPLGFHYETKYVVLSYLG, where the note is “parent: IOH5956_1, c terminus: a fixed tail appended”, the protein stability index was 2.43.

As for YIIQQGGWGTVFSLESEEEEYPGI, the protein stability index (parent: IOH5956_33, c terminus: a fixed tail appended) came out at 1.93.

With HLTRHQRTHTGEKPYKCTLCGENF, the protein stability index (parent: IOH6312_99, c terminus: a fixed tail appended) was determined as 2.9. On to MNLHVYISEHEHFTDFNATSALFW, for which the protein stability index (parent: IOH5653_18, c terminus: a fixed tail appended) worked out at 2.74. For FGGGSTRGGSLLAGGGGFGGGSLS, the protein stability index (parent: IOH5303_3, c terminus: a fixed tail appended) stood at 1.81. For PGQPLPGASVRGLHPVQKVILNYP, the protein stability index (parent: IOH5394_50, c terminus: a fixed tail appended) was found to be 3.05. For FVKILKDFPEEDDPTNWLRCYYYE, the protein stability index (parent: IOH5398_38, c terminus: a fixed tail appended) is 2.09. On to CKACITRWWEDLERDFPCPVCRKT, for which the protein stability index (parent: IOH5913_9, c terminus: a fixed tail appended) worked out at 3.85. With LARRRRRRQARREAEADKPRRLGR, the protein stability index (parent: IOH6410_65, c terminus: a fixed tail appended) was determined as 4.75.

Regarding FCYCAGSHKRKRSSGSFCYCHPDS, where the note is “parent: IOH5876_8, c terminus: a fixed tail appended”, the protein stability index was 1.91. As to YPHCTGISQQDPESDSQGQGNGLF [FAM164C WT], under “parent: IOH5453_15, c terminus: a fixed tail appended”, the protein stability index was determined as 3.84.

As for ALLHQAETLQPSVWFGGREHVLMF, the protein stability index (parent: IOH5167_67, c terminus: a fixed tail appended) was 2.09. CSECGESFSRSSRLMSHQRTHTG: the protein stability index (parent: IOH6312_114, c terminus: native) was 2.98. On to SVICRSLPEGMGPGESGQPPPAC [ALKBH7 WT], for which the protein stability index (parent: IOH5568_34, c terminus: native) turned out to be 1.99. In the case of PEASHLRFRRFRFQEAAGPREALS, where the note is “parent: IOH6312_7, c terminus: a fixed tail appended”, the protein stability index turned out to be 2.65. Consider KKFRTKSRTWAGEKSKREMYSRLK, for which the protein stability index (parent: IOH5852_84, c terminus: a fixed tail appended) is 2.82. KQGSMNFRFIPVLFPNAKKEHVPT: the protein stability index (parent: IOH5394_84, c terminus: a fixed tail appended) is 1.99. Take YGHDYPRAAYQQVIQPALPGQPLP: where the note is “parent: IOH5394_47, c terminus: a fixed tail appended”, the protein stability index came out at 1.96. With FQAKKIPIVSSLADPLDTPPDSKE, the protein stability index (parent: IOH5807_78, c terminus: a fixed tail appended) worked out at 3.78.

For the protein RTHTGEKPYKCTLCGENFSHRSNL, for the setting “parent: IOH6312_100, c terminus: a fixed tail appended”, the protein stability index was found to be 2.17.

For the protein DPQSGELPSERWNPTQNVRTILLS [UBE2R2 WT], for the setting “parent: IOH5652_18, c terminus: a fixed tail appended”, the protein stability index is 3.45. For KIANLGSCNDSKLEFRSFWELIGE [S100A14 WT], the protein stability index (parent: IOH5597_12, c terminus: a fixed tail appended) amounted to 2.01.

As to EKPYKCPECGEIFAHSSNLLRHQR, the protein stability index (parent: IOH6312_82, c terminus: a fixed tail appended) is 2.43. For the protein QRTHTGEKPYKCPECGEIFAHSSN, the protein stability index (parent: IOH6312_81, c terminus: a fixed tail appended) was found to be 3.1. On to YPCVLATEGFTSGRHYWEVEVGDK, for which the protein stability index (parent: IOH5913_59, c terminus: a fixed tail appended) amounted to 1.8. Consider VPGTQVGQGGKLWDPSVQSCKEGL, for which, where the note is “parent: IOH6312_45, c terminus: a fixed tail appended”, the protein stability index came to 4.2. With KEHVPTWLQNTHVYSWPKNKKNIL, the protein stability index (parent: IOH5394_87, c terminus: a fixed tail appended) amounted to 2.59. As to SCTIIFLASIFQLAMWTTALLHQA, the protein stability index (parent: IOH5167_64, c terminus: a fixed tail appended) is 2.71.
